B1: KRT71 (parent)
chain: FGSRSLYSLGGVRSLNVASGSGKS
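Further: lentivirally expressed fusions sorted by FACS into six bins by GFP to DsRed ratio, PSI derived from sequencing read proportions per bin multiplied by bin number.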

This series covers variants of B1. The series is described as follows: protein stability index of a GFP-peptide fusion (GPS, HEK-293T) (PSI 1-6); higher = more stable. The note with it: c terminus: a fixed tail appended.
For the variant FGSRSLYSLGGVRSLNVASGSGKH, the protein stability index was found to be 1.66.
The figure for FGSRSLYSLGGVRSLNVASGSGKA is 1.73; for FGSRSLYSLGGVRSLNVASGSGKE it is 2.21; for FGSRSLYSLGGVRSLNVASGSGKP it is 2.33.
For FGSRSLYSLGGVRSLNVASGSGKR, the protein stability index came out at 1.49.
Regarding FGSRSLYSLGGVRSLNVASGSGKN, the protein stability index was 1.7.
In the case of FGSRSLYSLGGVRSLNVASGSGKI, the protein stability index turned out to be 1.61.
Consider FGSRSLYSLGGVRSLNVASGSGKT, for which the protein stability index amounted to 1.81.
The figure for FGSRSLYSLGGVRSLNVASGSGKY is 1.39; for FGSRSLYSLGGVRSLNVASGSGKC it is 1.71.
Consider FGSRSLYSLGGVYSLNVASGSGKS, for which the protein stability index stood at 1.7.
As for FGSRSLYSLGGVPSLNVASGSGKS, the protein stability index is 1.81.
On to FGSRSLYSLGGVFSLNVASGSGKS, for which the protein stability index amounted to 1.72.
On to FGSRSLYSLGGVHSLNVASGSGKS, for which the protein stability index was determined as 1.81.
Regarding FGSRSLYSLGGVQSLNVASGSGKS, the protein stability index came out at 1.43.
Regarding FGSRSLYSLGGVGSLNVASGSGKS, the protein stability index was 1.45.
Regarding FGSRSLYSLGGVCSLNVASGSGKS, the protein stability index was 2.29.
Regarding FGSRSLYSLGGVWSLNVASGSGKS, the protein stability index came out at 1.67.
With FGSRSLYSLGGVMSLNVASGSGKS, the protein stability index came to 1.26.
Take FGSRSLYSLGGVRSLNSASGSGKS: the protein stability index worked out at 1.92.
Regarding FGSRSLYSLGGVRSLNIASGSGKS, the protein stability index was 1.94.
For the variant FGSRSLYSLGGVRSLNRASGSGKS, the protein stability index was found to be 1.7.
Regarding FGSRSLYSLGGVRSLNFASGSGKS, the protein stability index turned out to be 2.17.
As to FGSRSLYSLGGVRSLNCASGSGKS, the protein stability index was 2.31.
Consider FGSRSLYSLGGVRSLNGASGSGKS, for which the protein stability index turned out to be 1.91.
As to FGSRSLYSLGGVRSLNEASGSGKS, the protein stability index is 1.59.
Next, FGSRSLYSLGGVRSLNDASGSGKS: 2.13.
FGSRSLYSLGGVRSLNTASGSGKS: the protein stability index is 2.52.
Regarding FGSCSLYSLGGVRSLNVASGSGKS, the protein stability index came out at 2.35.
For FGSFSLYSLGGVRSLNVASGSGKS, the protein stability index was found to be 1.58.
For the variant FGSHSLYSLGGVRSLNVASGSGKS, the protein stability index was 2.15.
As to FGSASLYSLGGVRSLNVASGSGKS, the protein stability index came to 2.71.
Next, FGSESLYSLGGVRSLNVASGSGKS: 2.44; FGSPSLYSLGGVRSLNVASGSGKS: 1.35.
For the variant FGSKSLYSLGGVRSLNVASGSGKS, the protein stability index stood at 2.14.
For the variant FGSGSLYSLGGVRSLNVASGSGKS, the protein stability index is 2.56.
Next, FGSRSLYSLGGVRSLPVASGSGKS: 2.04; FGSRSLYSLGGVRSLWVASGSGKS: 2.95; FGSRSLYSLGGVRSLHVASGSGKS: 2.21.
As to FGSRSLYSLGGVRSLAVASGSGKS, the protein stability index was 1.93.
As for FGSRSLYSLGGVRSLSVASGSGKS, the protein stability index was 2.15.
For the variant FGSRSLYSLGGVRSLQVASGSGKS, the protein stability index was 2.44.
For FGSRSLYSLGGVRSLVVASGSGKS, the protein stability index is 2.06.
As to FGSRSLYSLGGVRSLFVASGSGKS, the protein stability index was 2.22.
Regarding FPSRSLYSLGGVRSLNVASGSGKS, the protein stability index was 2.07.
Turning to FQSRSLYSLGGVRSLNVASGSGKS, the protein stability index was determined as 3.09.
With FRSRSLYSLGGVRSLNVASGSGKS, the protein stability index was determined as 3.5.
FSSRSLYSLGGVRSLNVASGSGKS: the protein stability index worked out at 1.99.
Next, FHSRSLYSLGGVRSLNVASGSGKS: 1.32.
As for FVSRSLYSLGGVRSLNVASGSGKS, the protein stability index is 3.98.
FASRSLYSLGGVRSLNVASGSGKS: the protein stability index was determined as 2.02.
On to FCSRSLYSLGGVRSLNVASGSGKS, for which the protein stability index worked out at 3.47.
Next, FGSRFLYSLGGVRSLNVASGSGKS: 1.95; FGSRVLYSLGGVRSLNVASGSGKS: 1.9.
Consider FGSRGLYSLGGVRSLNVASGSGKS, for which the protein stability index was found to be 1.6.
On to FGSRTLYSLGGVRSLNVASGSGKS, for which the protein stability index was 1.64.
Next, FGSRALYSLGGVRSLNVASGSGKS: 2.35; FGSRDLYSLGGVRSLNVASGSGKS: 2.31.
As for FGSRLLYSLGGVRSLNVASGSGKS, the protein stability index was found to be 2.15.
As to FGSRPLYSLGGVRSLNVASGSGKS, the protein stability index was determined as 2.91.
Next, FGSRSLYSLGGSRSLNVASGSGKS: 2.45; FGSRSLYSLGGDRSLNVASGSGKS: 2.05; FGSRSLYSLGGYRSLNVASGSGKS: 1.65.
With FGSRSLYSLGGCRSLNVASGSGKS, the protein stability index was determined as 1.55.
For the variant FGSRSLYSLGGKRSLNVASGSGKS, the protein stability index turned out to be 2.
As to FGSRSLYSLGGGRSLNVASGSGKS, the protein stability index is 2.13.
For FGSRSLYSLGGHRSLNVASGSGKS, the protein stability index is 1.68.
Next, FGSRSLCSLGGVRSLNVASGSGKS: 2.48; FGSRSLNSLGGVRSLNVASGSGKS: 3.26; FGSRSLMSLGGVRSLNVASGSGKS: 2.54.
With FGSRSLISLGGVRSLNVASGSGKS, the protein stability index was 2.32.
Regarding FGSRSLDSLGGVRSLNVASGSGKS, the protein stability index was 3.53.
The figure for FGSRSLQSLGGVRSLNVASGSGKS is 3.91.
In the case of FGSRSLLSLGGVRSLNVASGSGKS, the protein stability index came to 1.6.
On to FGSRSLFSLGGVRSLNVASGSGKS, for which the protein stability index came out at 3.01.
Take FGSRSLSSLGGVRSLNVASGSGKS: the protein stability index worked out at 3.89.
For the variant FGSRSLWSLGGVRSLNVASGSGKS, the protein stability index was 2.05.
Consider FGSRSLYSLGGVRSLNVASFSGKS, for which the protein stability index worked out at 2.04.
Regarding FGSRSLYSLGGVRSLNVASQSGKS, the protein stability index amounted to 1.87.
The figure for FGSRSLYSLGGVRSLNVASKSGKS is 1.5.
The figure for FGSRSLYSLGGVRSLNVASTSGKS is 2.16; for FGSRSLYSLGGVRSLNVASESGKS it is 1.49.
As for FGSRSLYVLGGVRSLNVASGSGKS, the protein stability index is 2.23.
Regarding FGSRSLYMLGGVRSLNVASGSGKS, the protein stability index came to 1.38.
The figure for FGSRSLYHLGGVRSLNVASGSGKS is 2.89; for FGSRSLYQLGGVRSLNVASGSGKS it is 1.72; for FGSRSLYFLGGVRSLNVASGSGKS it is 1.21.
Next, FGSRSLYILGGVRSLNVASGSGKS: 1.54; FGSRSLYCLGGVRSLNVASGSGKS: 2.1; FGSRSRYSLGGVRSLNVASGSGKS: 2.65.
Next, FGSRSMYSLGGVRSLNVASGSGKS: 1.93; FGSRSKYSLGGVRSLNVASGSGKS: 2.91.
As to FGSRSPYSLGGVRSLNVASGSGKS, the protein stability index was found to be 1.74.
In the case of FGSRSGYSLGGVRSLNVASGSGKS, the protein stability index turned out to be 1.77.
